Earlier results as cited in PMC8329073.
pKd: −log10 of the molar value.

Biological target: Thrombin (UniProt P00734+P00734)
Conditions: 20 mM Tris-HCl pH 7.5 (22 °C), 100 mM NaCl, 0.1 mM EDTA, 5 mM MgCl2 (20 mM MgCl2 for DNAzyme), room temperature; indirect read-out by strand-displacement …

Substance: thrombin DNA aptamer (parent, ref 67)
- pKd: 9.30
